Assay results published in FireProtDB (doi:10.1002/prot.340230110).

B1: Regulatory protein rop, P03051 (parent)
chain: MTKQEKTALNMARFIRSQTLTLLEKLNELDADEQADICESLHDHADELYRSCLARFGDDGENL

Variants of: B1
Details: Escherichia coli, pH 6, Thermal, DSC, Sodium phosphate/Sodium sulfate 10 mM/10 mM/, reversible: yes, structure 1ROP, whole UniProt chain shown

Row | Variant | ddG of mutation (higher = less stable) (25 °C) [kcal/mol] | heat capacity change of unfolding (25 °C) [kcal/mol/K] | unfolding free energy (25 °C) [kcal/mol] | Tm [°C] | change of melting temperature, mutant - wild type (higher = more stable) [°C] | heat capacity change of unfolding [kcal/mol/K] | unfolding enthalpy (calorimetric) [kcal/mol] | unfolding enthalpy (van 't Hoff) [kcal/mol]
1 | L41A | 6.12 | 1.65 | 11 | 52.9 | -18.1 | 1.65 | 80.1 | 92.8
2 | L41V | 2.53 | 1.99 | 14.6 | 65.3 | -5.7 | 1.99 | 110 | 114
